From the DeepSol protein solubility set

Test: soluble on expression in E. coli; label from the status in PepcDB or PDB records

Q: With “MGSDKIHHHHHHMFGFRLSGGKGILQRSQVALVVMESTGGLEIPAAKAIRRAGIAVIIANPRQTHQFAQLQPLTKTDAKDAKMPAFFAQMTAQKEDSQTMPYQPPTEAEEVLEALVNRRNQSADMRTAEKNRLHQVHETQVGSVKQLIAHFDRLIDELDKQIDDHTHTHFDGKAQVAEQIKGIGSITTATLMAMLPELGRLSHKRIASLAGIAPHPRESEETKFKSRCFGGRSAVRKALYMATVAATRFEPLIRDFYQRLLSKGKPYKVAVTACMRKLLTISNTRMRDYFAENDTAENGIRTA” as the sequence, how does the “soluble on expression in E. coli” value read?
A: not soluble

Q: For “MGSDKIHHHHHHMFKIVYPNAKDFFSFINSITNVTDSIILNFTEDGIFSRHLTEDKVLMAIMRIPKDVLSEYSIDSPTSVKLDVSSVKKILSKASSKKATIELTETDSGLKIIIRDEKSGAKSTIYIKAEKGQVEQLTEPKVNLAVNFTTDESVLNVIAADVTLVGEEMRISTEEDKIKIEAGEEGKRYVAFLMKDKPLKELSIDTSASSSYSAEMFKDAVKGLRGFSAPTMVSFGENLPMKIDVEAVSGGHMIFWIAPRL”, which “soluble on expression in E. coli” value is on record?
A: not soluble

Q: For “MGSDKIHHHHHHMFLRFFSELRQAKVPVSLREYLLLMEALDKDVIDRSVEDFYFLSRASLVKDEKNLDKFDRVFSHVFKGLETVNDGLAADIPEEWLKALTEKFLTDEEKAQIEALGGFEKLMETLQERLREQKKRHEGGNKMIGSGGTSPFGNNGYNPEGVRIGQDKGRHGRAVKVWDKREYKNLDDSVELGTRNIKVALRRLRKFARTGAAEELDLNGTIKGTAEKGYLDIQLRPERRNAIKVLLFFDIGGSMDSHIKLCEELFSAARTEFKNLEFYYFHNCLYETVWKDNKRRQTEKIPTFDVLHKFPADYKVIFVGDATMSPYEITYPGGSVEHWNEEPGAIWMQRVTEIYQSCIWLNPTPERHWDYTQSIGVMRQIMADRMFPLTIEGLDKAMRELVRG”, which “soluble on expression in E. coli” value is on record?
A: not soluble

Q: With “MGSDKIHHHHHHMFPDGEISDVVVIGGGPAGAICALALARAGVDVKLMYWGGYAPGGIELVSGRGRHFIEQYCPDFFSEVVHGIEIHETASLWDTAEPVIFNAMFNPWGAGVAIERSLLDGALRNLASGAGGTIIPDAKVVDVERQHDRWRLIARSSEDASSNETTSRAGEFAIYARFIVLATGRVPLPFFDHAPVAESSQIALMTSLQARIAPRHTLYVEGTRNGWWYALPAEKGYFASFCIGRNELKQRQSRLKDFFFQELQCTRLLAPLSAGAFDQRPIAGRMAGATMFPAMGGDAWIAVGDATAAPDPLSGTGIEWAIESAQLGADMLLEALHGSKGNVLFDLPRYENTIRRRIAAQEKTAAYHYHRLKEIRET” as the sequence, how does the “soluble on expression in E. coli” value read?
A: not soluble

Q: Which “soluble on expression in E. coli” value does the source give for “MGSDKIHHHHHHMFSSPLELFKALTQIPHSSGDTTLMQKFLIQSAQSFGALVSVDSAGNILCQKGDSPRFCLQAHYDMVCVGKAPEIELFEEGGWLRAKDSSLGADNGAALACFLILLKQESSIEILFTNDEEIGMLGAKALELTPSAPLILNVDSESLQEVVISCAGGYDLELEIPATFKETPAEGYLYELSTQNFLGGHSGIDIIKNHPNALVEMAHLLASLPVEILSFEGGEKSNSIPVHAKASLFSSRPLEHLPSWIRATARPLSSPLKALDQTPLLDLLRALHSGIFAYDEESSGVLDSLNISLLKAHEKGWTLTLMGRANDKERLWRNLERARLIARAFGIKEDRLKDFYPPWEKAKSSSYLEKIKEVYERELGVCHVRSIHAGLECAVLQEKLPKAEFISIGPTILHPHSTREALDIKSFERFWEILQIITKVL” here?
A: not soluble

Q: With “MGSDKIHHHHHHMGEIVLAAKCTHVPTMLMSEQEGPVKGKRQAAIDGHLEIARRARALGADTVVICDTHWVINAGFHINANSRFQGLFTSNEFPQFIQNMPYDYEGNPGLGDAIAKEASARGAYTLAHHLDSLELEYGTLVPMRFMSREHKMKVVSVAAWCTVHDHDESRIVGEAIRAAVEASNSKVLLVASGSLSHKIWPNKDYAANNGTFTISSEFNRQMDLHVLEMWKRGDHATFLKMLGDYARFCCGEGSMHDTAMLYGALGWDSYDKPCEVVTEYFPSSGTGQTNVIFPV” as the sequence, how does the “soluble on expression in E. coli” value read?
A: not soluble

Q: With “MGSDKIHHHHHHMGIMENPLIKPAALENTHQDGPHPQAEEPYYLPFGDEVSIFTQCHRRHLAVMLKGPTGCGKTRFVEHMAWRMKRPLIIVSCHDDLTAADLVGRFLIRDNATIWQDGPLTRAVRVGAICYLDEVVEARQDAVVVIHPLTDYRRVLPIDKTGELIEATPGFQLVISYNPGYQHVTKDLKPSTRQRFVALDFDFPPPEREAEIVIHESGAQPAVAYDLVALGGRIRGLADRGLAEVPSTRLLVATARLIANGIPPRLACHVALVSPLSDDPALVAAMRDLVDATLLD” as the sequence, how does the “soluble on expression in E. coli” value read?
A: not soluble

Q: For “MGSDKIHHHHHHMGIVGLPNAGKSSFFNFLTDNSVPAESFPFCTIEPNVGILVVPDERIEILAKNEGSKKVVHPFVEVVDIAGLVKGASKGEGLGNQFLDHISKVDVIAHVVRLFEDGRVSHPYQNVDPKRDIEIVETELILKDLETVQKRLEKRMKVARTGDKEAKREVELLQNLREFLSQGKKASKFPRHDRFEEEVIESLFLLTDKPQILVFNVDELDEEKRKLIEEIVKEKDEEYIIINVKLEEELKFLPEEEAEVFRREYNLFGDKRKEFFEKVLKLLNLIRFLTATQNEARSWTIKKGSTAYEAAGLIHSDIQKGFIKVEVIPFERYVEFGSLKKAREAGAVETHGKDYIVREGDVIHFLFRA”, which “soluble on expression in E. coli” value is on record?
A: not soluble

Q: For “MGSDKIHHHHHHMGLALCGAAAQAQEKPNFLIIQCDHLTQRVVGAYGQTQGCTLPIDEVASRGVIFSNAYVGCPLSQPSRAALWSGMMPHQTNVRSNSSEPVNTRLPENVPTLGSLFSESGYEAVHFGKTHDMGSLRGFKHKEPVAKPFTDPEFPVNNDSFLDVGTCEDAVAYLSNPPKEPFICIADFQNPHNICGFIGENAGVHTDRPISGPLPELPDNFDVEDWSNIPTPVQYICCSHRRMTQAAHWNEENYRHYIAAFQHYTKMVSKQVDSVLKALYSTPAGRNTIVVIMADHGDGMASHRMVTKHISFYDEMTNVPFIFAGPGIKQQKKPVDHLLTQPTLDLLPTLCDLAGIAVPAEKAGISLAPTLRGEKQKKSHPYVVSEWHSEYEYVTTPGRMVRGPRYKYTHYLEGNGEELYDMKKDPGERKNLAKDPKYSKILAEHRALLDDYITRSKDDYRSLKVDADPRCRNHTPGYPSHEGPGAREILKRK”, which “soluble on expression in E. coli” value is on record?
A: not soluble

Q: With “MGSDKIHHHHHHMGLFDFLKKGLQKTKETFFGRVVKLLKGKKLDDETREELEELLIQADVGVETTEYILERLEEKDGDALESLKEIILEILNFDTKLNVPPEPPFVIMVVGVNGTGKTTSCGKLAKMFVDEGKSVVLAAADTFRAAAIEQLKIWGERVGATVISHSEGADPAAVAFDAVAHALARNKDVVIIDTAGRLHTKKNLMEELRKVHRVVKKKIPDAPHETLLVIDATTGQNGLVQAKIFKEAVNVTGIILTKLDGTAKGGITLAIARELGIPIKFIGVGEKAEDLRPFDPEAFVEVLLSE” as the sequence, how does the “soluble on expression in E. coli” value read?
A: soluble

Q: With “MGSDKIHHHHHHMGMILNGYLEVINHLQQLPLALILIFNLKIMKQIIYVFLLTVLSSCDSYLSKVPSPSTSAPINNVEQLVAIYDNATAFINETNPFACYSNDDADLTAELYKADPSAFAISSTVFYNILHTAGIASQASDGLWNGEYSNIFKANTIINNVDKVTGDESEKIKLKCNAHFLRAYSYFVLAQYYCLPYCEANKNALGLPKRLNTDFEESIARVSLDEIYQLILDDLEIAAVTPDKSVNPNFPWRICQATVNALLSRVYLTMGNYKEAQATAEKALEGAPELLDFNELGYAPVESYPEMEGLPAQDVYNCETHKWTTIKYLYWKEFLFPRFTYARSQWIIPSDDLVSLYDQQNDRRFKLFFVEHGNRRMGVPYEAYRYNQFYDGRYIISGLTTAEMLLNKAEAQIRQGMWQEGLKTLDVLREKRYEAGTYISLSAGNQSEALSIVLAERRREMPFSMRIPDIKRYGVNEILEDDVTVVKNFFEISMSEVFIDKPKTYTIPSNSLLWAMPINDVEIGSSNGAIQQNRYE” as the sequence, how does the “soluble on expression in E. coli” value read?
A: not soluble

Q: Which “soluble on expression in E. coli” value does the source give for “MGSDKIHHHHHHMGNEVYDAVVVGAGFAGLTAARELSRQGLAVHIVEARDRIGGRTWLDHRLGRDLEIGGTWVHWTQPHVWAELTRYGLETTPSPEPERAFWWADGCRHEGRPDELLGLIGQTNEEFVRDSRKYFPEPFRPMARDDFKSIDHVSVQARIREQFPAGAPRDILESFWALNFNGPLDNAALTQAFRWVALTNGDWAVNFEACATYKIVGGTAALAASMLADSGAGIQYGFKVEAVAEDADVVEIRSADGRTVRARTAIVTVPLHALNAVDFEPPLPAAKAEAASLGQVSKGAKVWFRLRGEHAPFVALGGADWPLNFFQVEYALDGDTIAVGFGPDAAKIEVEDPVAVQAQLARLVPGAEVVAVASHNWVDDPLSGETWPMHRTGFLSTHLPAMQASHGLVLFAGSDIANGWCGFIDGAIESGMGAALDAASLLAGGRP” here?
A: not soluble

Q: Which “soluble on expression in E. coli” value does the source give for “MGSDKIHHHHHHMGNIEIKRVIAHHMDLGATKPTFLNNVIDISQEEMQDVIVFFGNHVKKALTTAQLKTCVFKNEDDEVYKYCKELAEDQSDDKLFVRVTRRMTIKLFYNMKRTSSTSSATLIFLHYFNVDSGKDYLGILKMDPNDGIELDPERVVFKVRKHMLPNVKERLHKSAFIKLDEKLFAEESHLYVLDKQQKMDGISKFFLEAFLNAKEVNSDKKTTAFFNTAVMEVARSEKVPNMFAIAKKVSDSMTEGKYIKVDSMLEEVLHDFIPGEEDRFDFIERVKQQMKKKNEDVQFEFTVEKEKEAISFLHNDDKSIQLRFKSILLGTDVFYDEEEDEDGNKFIVLKIREKNIESNFEFKK” here?
A: not soluble

Q: With “MGSDKIHHHHHHMGNPSWINVFALVDYRSSSDTLYRVEEGLIPLETFDEINSGDPVVLSSFLNAYRGEDLSLLVIWNHGDWWRGESQKQVKGVAYDFVNLDFFTIKEIKSVLRDSPVTVLGFDACLMGTFEILWELKDCARYVVVSSKEAPGNGWDYSVLRYSKDLSSLLSNIVKRYGEIYGTEYSLSVWDTSKLDEIMLWLDRVAQYMIENNLSPWEFEVERRTAGGSTTELVELGSFAKSLQNSSDVVLREYGEGLYSAIVSARVYGTPDNYTDLTIYLPQNMKNPEYWDDFVALSDFTSESSWDDLIEHWRDKN” as the sequence, how does the “soluble on expression in E. coli” value read?
A: not soluble

Q: With “MGSDKIHHHHHHMGNVSTFSIPGPARIPSAATTPAPHPWNRYVALGDSFTEGYGDPEPQSPGGVRGWADRVAEELSLGHQDFAYANLAVRGRLLQQIMDDQLGPALELRPDLVTLSAGGNDLVFRGSDPDKLAERLDPAIGLLSATGATVVLFTGPDWGNTPVFGRIRGKVAIFNENLRTIAARHDGVVADLWTLRQLAAPHMWDPDRLHFSPLGHHTIAAMVLETLNVPHTLKPLEPKVLPVSSWREARSSDLVWAKDYLFPWVVRRVRQRPANLGLKAKRPEPGPIFGPGVAHGPFPAGPLTAGKP” as the sequence, how does the “soluble on expression in E. coli” value read?
A: not soluble

Q: With “MGSDKIHHHHHHMGQPFVHPTGVTIYNPEKCFNGYTIMQAPGLGCVLIDMNGNVVRVFKDLHGFPNKLLPGGYVMGSRGRRNGKFGYQDQIDLVQVDWDGQVVWEFAKKEYIEDEGEKPQWMARQHHDYQREGNPVGYYVPGMECKTNSGNTLILSHQNCYHKKISDKQLLDDVIIEVDWDGNIVWEWHAVDHFHEYGFSAAAKLALYRNPNMHEAGGGMGDWMHINSASVLGPNKWYDKGDERFHPDNIIWDAREANIMAIISKETGKVVWKMGPDFAQDKKLRKIGQIIGQHHVHMIPQGLPGAGNILIFDNGGWAGYGAPNNVSKDGTKVDMADRSRVLELNPVTMEVVWQLKASELMDYGQPGISDYRFYSPLTSAAQRLPNGNTLITEGCGGRFFEVTRMKEVVWEFISPFNANPATIYYRAYRYPYSYVPQLPEPKETPVPMLDIRKFRVPGAASCEVQHVVGVEGTIGYPAMQQACVAAADQDLSLKDDDDDDLFSRSF” as the sequence, how does the “soluble on expression in E. coli” value read?
A: not soluble
